Laboratory results taken from patent US9539315B2, “Methods, agents and peptides for inhibiting matrix metalloproteinase-2 signaling” (New York University, priority 2011, dated 2017).
“Also recorded” adds a separate entry of the source.

Tests used:
DCs = test: Inflammatory cytokine secretion by DCs (cytokine bead array); format: cell-based, human; conditions: MMP-2 0.5 and 5 mg/ml, active or inactive; supernatants after eighteen hours
Protocol: DCs were exposed to MMP-2 (0.5 and 5 mg/ml) in various forms: active, heat-inactivated (HI), inhibited by a specific inhibitor (IMMP-2), PEX (last third of MMP-2, amino acids 445-635 of SEQ ID NO: 1), overlapping peptides (20-mer) spanning MMP-2, or controls. Eighteen hours later, supernatants were harvested and TNFα, IL-6, IL-8 and […] levels were measured by cytokine bead array.
PBMCs were purified from healthy-(HD) or cord blood- (CB) donors and plated at 40×10^6 cells/10 mL/dish in complete IMDM with 5% PHS. Cells were allowed to adhere for 2 h at 37° C. Non-adherent cells were removed. The monocyte-enriched fraction was supplemented with 100 UI/mL rhGMCSF and 300 UI/mL rhIL-4 (R&D Systems) on days 0, 2 and 4. Immature DCs were harvested on day 5 and matured using poly(I:C) at 5 μg/mL/10^6 DCs (Amersham). Secretion of IL-12p70, TNFα, IL-1β, IL-6, IL-8 and IL-10 was assessed on both immature and mature DCs using the Human Inflammatory Cytokine Cytometric Bead Array (BD Pharmingen).

TLR2/MyD88 complex = target: T1, TLR2/MyD88 complex (Homo sapiens, UniProt O60603); test: Co-immunoprecipitation of MMP-2 and TLR2 from moDCs or TLR2-transfected HEK cells; format: binding; conditions: n=3
T1 construct: endogenous in cells; host or cells: human monocyte-derived dendritic cells (moDCs); alternatively TLR2-transfected HEK cells
Protocol: 10^6 moDCs/lane or TLR2-transfected HEK cells were incubated for 20 min with or without 5 μg/ml MMP-2 or MMP-9 before being lysed. TLR2 A) and MMP-2 B) were immunoprecipitated using specific antibodies and protein G-agarose. Western blots for MMP-2 (≈70 kD), TLR2 (≈85 kD) and MyD88 (≈35 kD) were then performed. C and D) depict band intensities (mean of 3 independent experiments±s.d.), which are represented as a percentage of the band intensity corresponding to untreated cells. Two-tailed Student's t-tests were used to compare MMP-2- to MMP-9-treated cells. p values≦0.05 (*) were considered statistically significant.
To assess whether MMP-2 directly interacts with TLR2, moDCs and TLR2-transfected HEK cells were utlized. […] Similarly, TLR2 and MyD88 immunoprecipitated (n=3; p<0.05 compared to MMP-9-treated cells) with MMP-2 when moDCs were pre-treated with MMP-2 (FIG. 8B,D).

T1 sequence (O60603 21-784): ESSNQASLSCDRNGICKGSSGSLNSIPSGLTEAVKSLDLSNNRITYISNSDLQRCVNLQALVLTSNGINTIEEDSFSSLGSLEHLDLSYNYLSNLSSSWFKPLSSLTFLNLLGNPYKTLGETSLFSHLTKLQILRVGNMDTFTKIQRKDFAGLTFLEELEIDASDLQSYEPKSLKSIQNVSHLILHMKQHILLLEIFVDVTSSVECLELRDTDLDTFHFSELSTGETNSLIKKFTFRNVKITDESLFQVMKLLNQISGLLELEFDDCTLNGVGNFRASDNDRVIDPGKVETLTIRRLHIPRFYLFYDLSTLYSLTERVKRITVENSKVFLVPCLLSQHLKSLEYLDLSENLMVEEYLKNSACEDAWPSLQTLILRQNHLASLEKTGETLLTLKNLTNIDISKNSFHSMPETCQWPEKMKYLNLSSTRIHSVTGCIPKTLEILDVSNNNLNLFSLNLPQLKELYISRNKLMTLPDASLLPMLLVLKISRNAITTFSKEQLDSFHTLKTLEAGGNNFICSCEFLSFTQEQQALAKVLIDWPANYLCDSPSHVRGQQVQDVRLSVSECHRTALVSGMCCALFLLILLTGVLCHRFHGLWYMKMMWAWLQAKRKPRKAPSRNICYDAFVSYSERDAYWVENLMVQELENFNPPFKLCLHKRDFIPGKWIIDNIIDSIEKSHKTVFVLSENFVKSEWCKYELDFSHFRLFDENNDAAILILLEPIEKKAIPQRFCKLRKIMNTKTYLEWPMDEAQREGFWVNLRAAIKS
T1 sequence (Q99836 whole entry partner): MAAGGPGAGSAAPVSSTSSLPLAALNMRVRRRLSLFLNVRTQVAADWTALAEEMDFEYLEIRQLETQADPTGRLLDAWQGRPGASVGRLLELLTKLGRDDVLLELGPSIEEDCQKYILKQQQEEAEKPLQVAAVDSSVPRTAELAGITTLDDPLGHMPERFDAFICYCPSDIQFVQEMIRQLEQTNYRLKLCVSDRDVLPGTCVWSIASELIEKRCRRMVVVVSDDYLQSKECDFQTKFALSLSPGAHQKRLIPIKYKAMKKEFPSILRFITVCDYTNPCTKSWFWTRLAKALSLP

B1: matrix metalloproteinase-2 (protein)
chain: YNFFPRKPKWDKNQITYRIIGYTPDLDPETVDDAFARAFQVWSDVTPLRFSRIHDGEADIMINFGRWEHGDGYPFDGKDGLLAHAFAPGTGVGGDSHFDDDELWTLGEGQVVRVKYGNADGEYCKFPFLFNGKEYNSCTDTGRSDGFLWCSTTYNFEKDGKYGFCPHEALFTMGGNAEGQPCKFPFRFQGTSYDSCTTEGRTDGYRWCGTTEDYDRDKKYGFCPETAMSTVGGNSEGAPCVFPFTFLGNKYESCTSAGRSDGKMWCATTANYDDDRKWGFCPDQGYSLFLVAAHEFGHAMGLEHSQDPGALMAPIYTYTKNFRLSQDDIKGIQELYGASPDIDLGTGPTPTLGPVTPEICKQDIVFDGIAQIRGEIFFFKDRFIWRTVTPRDKPMGPLLVATFWPELPEKIDAVYEAPQEEKAVFFAGNEYWIYSASTLERGYPKPLTSLGLPPDVQRVDAAFNWSKNKKTYIFAGDKFWRYNEVKKKMDPGFPKLIADAWNAIPDNLDAVVDLQGGGHSYFFKGAYYLKLENQSLKSVKFGSIKSDWLGC
inflammatory cytokine secretion by DCs (TNFα, IL-6, IL-8, IL-1β) (DCs): secrete inflammatory cytokines; also recorded: significantly expressed
MMP-2 and MyD88 immunoprecipitated with TLR2 (TLR2/MyD88 complex; cells pre-treated 20 min with 5 μg/ml MMP-2 (active or inactive) or MMP-9): immunoprecipitated
TLR2 and MyD88 immunoprecipitated with MMP-2 (TLR2/MyD88 complex; moDCs pre-treated with MMP-2): immunoprecipitated
